Test results reported in patent publication US20240016943.
pIC50, pKd: −log10 of the molar value.

Key:
B6-Z4 = system: T1, B6-Z4; assay: EMSA; settings: 95% CI 49-66
T1 sequence 1: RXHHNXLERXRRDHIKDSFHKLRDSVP
T1 sequence 2: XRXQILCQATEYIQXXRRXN

[1] = system: T2, B1 (stapled MAX basic helix alone); assay: EMSA; settings: stapled basic helix alone
T2 sequence: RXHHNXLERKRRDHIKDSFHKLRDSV

[2] = target: B-Z (MAX-derived STR, cross-dimer) (UniProt P61244); assay: EMSA; settings: 95% CI 13-19; also 16 in Tables 12, 14; 20 mM HEPES pH 8.0, 150 mM NaCl, 2 mM MgCl2
STR116 (B11-Z6) [3] = target: STR116 (B11-Z6) (UniProt P61244); assay: EMSA; settings: 95% CI 13-16; B11-Z6 14 in Table 14
B4-Z = system: T3, B4-Z; assay: EMSA; settings: apparent; Table 14 gives 25 (conflict)
T3 sequence 1: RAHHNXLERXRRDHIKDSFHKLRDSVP
T3 sequence 2: XRAQILCKATEYIQYXRRK

BLI2-ZL1 = BLI2-ZL1 (UniProt P61244); assay: EMSA; settings: 500 nM sDBD
B-ZM3 = B-ZM3 (UniProt P61244+P61244); assay: EMSA; settings: 25 nM sDBD
B11-Z10 = B11-Z10 (UniProt P61244); assay: EMSA; settings: method inferred
BMADs-Z [4] = target: BMADs-Z (UniProt P61244); assay: EMSA; settings: 25 nM sDBD; listed twice, second value 82% (possibly BMAD-Z)
BLI1-ZM5 = BLI1-ZM5 (UniProt P61244); assay: EMSA
BLI1-ZM4 [5] = target: BLI1-ZM4 (UniProt P61244); assay: EMSA
B1-Z1 = system: T4, B1-Z1; assay: EMSA
T4 sequence 1: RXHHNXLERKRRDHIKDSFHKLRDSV
T4 sequence 2: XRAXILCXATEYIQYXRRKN

B-Z4 = B-Z4 (UniProt P61244); assay: EMSA; settings: apparent; Table 14 gives 14
B1-Z = system: T5, B1-Z; assay: EMSA; settings: apparent; Table 14 gives 17
T5 sequence 1: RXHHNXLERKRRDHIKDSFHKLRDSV
T5 sequence 2: XRAQILCKATEYIQYXRRK

B3-Z = system: T6, B3-Z; assay: EMSA; settings: apparent; Table 14 gives 76
T6 sequence 1: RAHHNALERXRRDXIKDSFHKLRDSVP
T6 sequence 2: XRAQILCKATEYIQYXRRK

B11-Z80 (STR1180) = B11-Z80 (STR1180) (UniProt P61244); assay: EMSA; settings: method inferred
[6] = target: B-Z5 (C-terminally truncated zipper) (UniProt P61244); assay: EMSA; settings: apparent; Table 14 gives 88
B-ZL1 = B-ZL1 (UniProt P61244+P61244); assay: EMSA; settings: listed as B-ZLI1; Table 14 gives 19
B10-Z6 [7] = target: B10-Z6 (UniProt P61244); assay: EMSA
B7-Z = system: T7, B7-Z; assay: EMSA; settings: apparent; Table 14 gives 173
T7 sequence 1: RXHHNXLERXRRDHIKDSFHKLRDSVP
T7 sequence 2: XRAQILCKATEYIQYXRRK

B-Z helical tetramer = B-Z helical tetramer (UniProt P61244+P61244); assay: EMSA
B1-Z4 = system: T8, B1-Z4; assay: EMSA; settings: 95% CI 37-43
T8 sequence 1: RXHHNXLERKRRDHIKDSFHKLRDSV
T8 sequence 2: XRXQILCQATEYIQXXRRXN

[8] = target: B (MAX basic helix alone) (UniProt P61244); assay: EMSA; settings: basic helix alone
B2-Z = system: T9, B2-Z; assay: EMSA; settings: apparent; Table 14 gives 15
T9 sequence 1: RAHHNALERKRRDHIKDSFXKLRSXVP
T9 sequence 2: XRAQILCKATEYIQYXRRK

B11-ZM4 [9] = assay: EMSA
BMYCs-Z [10] = target: BMYCs-Z (UniProt P61244); assay: EMSA; settings: 25 nM sDBD; listed twice, second value 19% (possibly BMYC-Z)
B7-Z4 = system: T10, B7-Z4; assay: EMSA
T10 sequence 1: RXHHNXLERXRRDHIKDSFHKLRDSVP
T10 sequence 2: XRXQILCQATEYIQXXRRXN

B11-Z4 [11] = target: B11-Z4 (UniProt P61244); assay: EMSA; settings: 95% CI 16-20; Table 14 gives 38
B11-Z7 = B11-Z7 (UniProt P61244); assay: EMSA
B11s-Z8 = B11s-Z8 (UniProt P61244); assay: EMSA; settings: method inferred
B12-Z6 [12] = system: T11, B12-Z6; assay: EMSA
T11 sequence 1: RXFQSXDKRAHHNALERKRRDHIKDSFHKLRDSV
T11 sequence 2: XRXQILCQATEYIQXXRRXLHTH

B2-Z4 = system: T12, B2-Z4; assay: EMSA
T12 sequence 1: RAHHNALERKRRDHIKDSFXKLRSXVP
T12 sequence 2: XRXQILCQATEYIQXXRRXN

B2-Z2 = system: T13, B2-Z2; assay: EMSA
T13 sequence 1: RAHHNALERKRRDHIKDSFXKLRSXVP
T13 sequence 2: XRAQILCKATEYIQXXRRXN

B8-Z4 = system: T14, B8-Z4; assay: EMSA
T14 sequence 1: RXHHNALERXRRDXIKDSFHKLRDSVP
T14 sequence 2: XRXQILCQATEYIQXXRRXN

B-Z1 = B-Z1 (UniProt P61244); assay: EMSA; settings: apparent; Table 14 gives 45
BLI2-Z [13] = assay: EMSA; settings: 500 nM sDBD
B-Z2 = B-Z2 (UniProt P61244); assay: EMSA; settings: apparent; Table 14 gives 22
BLI1-ZL1 [14] = target: T15, BLI1-ZL1 (UniProt P61244+P61244); assay: EMSA; settings: 95% CI 14-35; Table 14 gives 19
B-Z3 = B-Z3 (UniProt P61244); assay: EMSA; settings: apparent; Table 14 gives 15
BLI1s-Z [15] = target: BLI1s-Z (UniProt P61244); assay: EMSA; settings: 25 nM sDBD
B5-Z4 = system: T16, B5-Z4; assay: EMSA; settings: 95% CI 98-126; Table 14 gives 118
T16 sequence 1: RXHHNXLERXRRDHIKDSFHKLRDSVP
T16 sequence 2: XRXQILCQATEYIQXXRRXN

BLI1-Z [16] = target: BLI1-Z (UniProt P61244); assay: EMSA; settings: apparent; Table 14 gives 12
B1-Z2 helical tetramer [17] = system: T17, B1-Z2 helical tetramer; assay: EMSA
T17 sequence 1: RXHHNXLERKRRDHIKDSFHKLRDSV
T17 sequence 2: XAQILCKATEYIQXMRRXN

B-ZM4 [18] = target: B-ZM4 (UniProt P61244); assay: EMSA
B11-Z81 = B11-Z81 (UniProt P61244); assay: EMSA; settings: method inferred
B8-Z = system: T18, B8-Z; assay: EMSA; settings: apparent; Table 14 gives 672 (conflict)
T18 sequence 1: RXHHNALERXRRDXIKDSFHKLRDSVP
T18 sequence 2: XRAQILCKATEYIQYXRRK

B1-Z2 = system: T19, B1-Z2; assay: EMSA; settings: 95% CI 22-29
T19 sequence 1: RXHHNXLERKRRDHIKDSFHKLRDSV
T19 sequence 2: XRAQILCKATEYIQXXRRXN

B11-Z70 = B11-Z70 (UniProt P61244); assay: EMSA; settings: method inferred
STR118 (B11-Z8) [19] = target: STR118 (B11-Z8) (UniProt P61244); assay: EMSA; settings: 95% CI 3.0-4.0; B11-Z8 4.2 in Table 14
BMAD-Z = BMAD-Z (UniProt P61244); assay: competition; settings: MAX competition at 500 nM
BMYC-Z = BMYC-Z (UniProt P61244); assay: competition; settings: MAX competition at 500 nM
STR116 (B11-Z6) [20] = target: STR116 (B11-Z6) (UniProt P61244); assay: competition; settings: vs MAX/MAX 30 nM; Table 15 gives 65 for B11-Z6 (conflict); vs MYC/MAX 1.0 uM
BMADs-Z [21] = target: BMADs-Z (UniProt P61244); assay: competition; settings: MAX competition at 500 nM
BLI1-ZM4 [22] = target: BLI1-ZM4 (UniProt P61244); assay: competition; settings: vs MAX
B10-Z6 [23] = target: B10-Z6 (UniProt P61244); assay: competition; settings: vs MAX
B11-ZM4 [24] = assay: competition; settings: vs MAX
BMYCs-Z [25] = target: BMYCs-Z (UniProt P61244); assay: competition; settings: MAX competition at 500 nM
B11-Z4 [26] = target: B11-Z4 (UniProt P61244); assay: competition; settings: vs MAX
B12-Z6 [27] = system: T11, B12-Z6; assay: competition; settings: vs MAX
BLI2-Z [28] = assay: competition; settings: MAX competition at 500 nM
BLI1-ZL1 [29] = target: T15, BLI1-ZL1; assay: competition; settings: vs MAX
BLI1s-Z [30] = target: BLI1s-Z (UniProt P61244); assay: competition; settings: MAX competition at 500 nM
BLI1-Z [31] = target: BLI1-Z (UniProt P61244); assay: competition; settings: vs MAX; 50% at 500 nM in Table 16
B1-Z2 helical tetramer [32] = system: T17, B1-Z2 helical tetramer; assay: competition; settings: helical tetramer vs MAX
B-ZM4 [33] = target: B-ZM4 (UniProt P61244); assay: competition; settings: MAX competition at 500 nM
STR118 (B11-Z8) [34] = target: STR118 (B11-Z8) (UniProt P61244); assay: competition; settings: vs MAX/MAX 30 nM; Table 15 gives 79 for B11-Z8; vs MYC/MAX 170 nM

E-box probe gave a pKd (B6-Z4) of 7.24, a pKd [1] of less than 5.70 and a pKd [2] of 7.80. The pKd (STR116 (B11-Z6) [3]) was 7.85, the pKd (B4-Z) was 6.62 and the binding signal (BLI2-ZL1) was 54 % bound. For the same substance, the binding signal (B-ZM3) was 53 % bound, the pKd (B11-Z10) was 8.32 and the binding signal (BMADs-Z [4]) was 63 % bound. For the same substance, the pKd (BLI1-ZM5) was 8.55, the pKd (BLI1-ZM4 [5]) was 8.00 and the pKd (B1-Z1) was 7.31. It also gave a pKd (B-Z4) of 7.70, a pKd (B1-Z) of 7.74 and a pKd (B3-Z) of 7.11. It also gave a pKd (B11-Z80 (STR1180)) of 8.57, a pKd [6] of 7.01 and a pKd (B-ZL1) of 7.70. It also gave a pKd (B10-Z6 [7]) of 7.80, a pKd (B7-Z) of 6.77 and a pKd (B-Z helical tetramer) of 8.70. For the same substance, the pKd (B1-Z4) was 7.40, the pKd [8] was less than 5.70 and the pKd (B2-Z) was 7.72. The pKd (B11-ZM4 [9]) was 7.68, the binding signal (BMYCs-Z [10]) was 27 % bound and the pKd (B7-Z4) was 6.63. It also gave a pKd (B11-Z4 [11]) of 7.74, a pKd (B11-Z7) of 7.66 and a pKd (B11s-Z8) of 8.19. The pKd (B12-Z6 [12]) was 8.10, the pKd (B2-Z4) was 7.82 and the pKd (B2-Z2) was 7.74. For the same substance, the pKd (B8-Z4) was 6.79, the pKd (B-Z1) was 7.24 and the binding signal (BLI2-Z [13]) was 72 % bound. The pKd (B-Z2) was 7.66, the pKd (BLI1-ZL1 [14]) was 7.60 and the pKd (B-Z3) was 7.74. It also gave a binding signal (BLI1s-Z [15]) of 50 % bound, a pKd (B5-Z4) of 6.95 and a pKd (BLI1-Z [16]) of 8.08. For the same substance, the pKd (B1-Z2 helical tetramer [17]) was 8.74, the pKd (B-ZM4 [18]) was 8.10 and the pKd (B11-Z81) was less than 7.00. For the same substance, the pKd (B8-Z) was 7.18, the pKd (B1-Z2) was 7.59 and the pKd (B11-Z70) was 7.96. The pKd (STR118 (B11-Z8) [19]) was 8.46, the activity (BMAD-Z) was 66% and the activity (BMYC-Z) was 9%. It also gave a pIC50 (STR116 (B11-Z6) [20]) of 6.40, an activity (BMADs-Z [21]) of 24% and a pIC50 (BLI1-ZM4 [22]) of 6.25. The pIC50 (B10-Z6 [23]) was 6.49, the pIC50 (B11-ZM4 [24]) was 6.25 and the activity (BMYCs-Z [25]) was 7%. For the same substance, the pIC50 (B11-Z4 [26]) was 6.30, the pIC50 (B12-Z6 [27]) was 7.21 and the activity (BLI2-Z [28]) was 16%. It also gave a pIC50 (BLI1-ZL1 [29]) of 6.03, an activity (BLI1s-Z [30]) of 22% and a pIC50 (BLI1-Z [31]) of 6.04. The pIC50 (B1-Z2 helical tetramer [32]) was 5.96, the activity (B-ZM4 [33]) was 41% and the pIC50 (STR118 (B11-Z8) [34]) was 7.21.
